Source: the supplement of paper PMC12042874
± gives the uncertainty stated by the source.

Assay: amyloid nucleation score (Sup35N fusion, yeast selection) (log enrichment); library NNK3; higher = more nucleation; inactive = no reads after selection
Summary of the method: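 Sup35N was fused to peptides of 20 random codons and expressed in psi-negative yeast, which were induced with 100 μM copper sulfate for 24 hours and then grown on medium lacking adenine and uracil for 7 days at 30°C. Plasmid inserts from input and output were sequenced on Illumina. The nucleation score is the DiMSum log enrichment of output over input reads, centred on the mode score of non-aggregating sequences. Sequences with under 100 input reads were left out, and random libraries had three technical output replicates.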

| Substance | amyloid nucleation score |
| --- | --- |
| EFTFWWCCDRYSRAELTCRR | inactive |
| LVLDINTFTDIGSRKRWSHG | inactive |
| HIRSSDHGGSLTGLTCRDTD | inactive |
| MLLVHNRTDIFLWIDLYNSL | inactive |
| DLLYYLRSCDFCCCMDTS | inactive |
| NNLSNWIRKVCNSYYHPTYQ | inactive |
| WGDDGNTFYE | inactive |
| VFIPVASVIKWGSFKP | 0.65 ± 0.21 |
| CMFYLLVSLPWVAVTSVLRV | inactive |
| CYFTASCLWMNANIDVSLSK | inactive |
| GSHNAMLSAISADAGAWQRE | inactive |
| MRSNMFSRAGNYGQSIKELT | inactive |
| LLVCVFFGVLKIYFIVAIRW | inactive |
| YISIYFSFNRLIVNATSTTK | inactive |
| LIALNYVWYTAQ | inactive |
| GYPVWYVDLFSAKVRMQ | inactive |
| VNSLVSRQINFIEVRRSMRW | 0.849 ± 0.23 |
| HKDTSDFISHVRVSPWPNKG | inactive |
| AWLNFCPSHVLLLFESYLNV | inactive |
| NSKLRLFWRTGMVHSVVDVS | inactive |
| EINMKSLV | inactive |
| YYLDRVYIFSTQDL | 1.67 ± 0.065 |
| NYVLRSMSGTRFRALWRVAP | inactive |

| Substance | amyloid nucleation score |
| --- | --- |
| FWFLLWKRKDTLWAFR | inactive |
| LYDDVSTVWNKKTEVGQLLN | inactive |
| YLFPRVSLICERIWIENVGY | inactive |
| RLATHCKHNASCQQSFYRE | inactive |
| SSDECV | inactive |
| VMHNVM | inactive |
| MSVYRYSKAVYARIEFTSRS | inactive |
| YMACGHVAGPVH | inactive |
| CDNWLSYMWFYGNGAAPEGR | 2.06 ± 0.094 |
| DFPIGYHHNVMI | inactive |
| YCRSSPTLTFCQYSL | inactive |
| NRRWILRRLLPSVNLSE | inactive |
| RYRGFNVVVLIGKDRVGSAM | inactive |
| QESLDANFGLIVCYADLAED | inactive |
| IGRVNSSGVQDGSHCYECES | 0.481 ± 0.27 |
| YFVALVS | inactive |
| VLLMRNAVIYPGSGMSSSSA | inactive |
| RSSDYNRLHRSFSCNG | inactive |
| YSHSGIRIKRLEASEYTWPS | inactive |
| FMYNLVVSGSVHSKVDRYSC | 0.629 ± 0.16 |
| RCSHDYGLWVVDWVVSKWGC | inactive |
| QVYLVIV | inactive |
| MGAANSWETDKF | inactive |

| Substance | amyloid nucleation score |
| --- | --- |
| CTDIICMIRFVVLDMRGAN | 0.981 ± 0.12 |
| VVYIRWYIRLLRHNIVSILS | inactive |
| LREQGRNTSR | inactive |
| DCYRGVSLCELFDECR | inactive |
| LYSAGLNEFLL | inactive |
| TGVRMWFVG | inactive |
| IPAELDRQNSSAVNTPYHEM | inactive |
| FYDHRIRSCGLVFIKECVTP | inactive |
| ILLIINFG | 2.21 ± 0.065 |
| SLSSIGSDFNGGC | inactive |
| YMAAVTFFEVY | 0.012 ± 0.34 |
| FLAIGLFSSNT | 1.73 ± 0.061 |
| RDLWNGFSLGA | inactive |
| VTKAWMCYYLLLYVWDEGRA | inactive |
| ENVARGAMFCPMHRGFQSSE | inactive |
| MMLFNVPKICHRLWLNLHRH | inactive |
| NSLNKGKFHWVNIGTSSLQG | inactive |
| SAHEFIVDCRYESIRMFVII | inactive |
| TGFNASCCLLGSRCGAEKIL | 0.604 ± 0.18 |
| TVTCRVQRHLDLN | inactive |
| FLGLLLIYQPNSIE | inactive |
| KYRFLSKSRMRGSACHGKDQ | inactive |
| TCWFGIQLSGL | 0.651 ± 0.2 |

| Substance | amyloid nucleation score |
| --- | --- |
| GSRSARMGVVRRGRRCSECY | inactive |
| ILVYSVLIV | inactive |
| EIWSDKCSTRSMLHPAYIMY | inactive |
| YLMVTVSALPSACCGVCVPW | 1.48 ± 0.1 |
| MVGGVHCLSSVLRRWAAGRR | -0.676 ± 1.7 |
| WISEDTRLLHWLLQCVWIRI | -0.531 ± 1.4 |
| GWVIDRLYGDDMSSILEL | inactive |
| SCRCR | inactive |
| NMSWNVCVRFK | 1.87 ± 0.068 |
| RHWIWLMQWKD | 1.11 ± 0.14 |
| SDYTYFYM | inactive |
| HLYDPVFTKVAPRSSGGYGQ | inactive |
| LAYYRPRQEWVPCNSVGLK | inactive |
| GAGRNFGTVCL | inactive |
| WGFVIIYELKNLMCVMRPPS | inactive |
| YNECYWK | inactive |
| SCTLYAHALCPEQISPQFLH | inactive |
| EELLRGFGAVGSWLNLSLEV | inactive |
| IHLRDMSLS | 0.591 ± 0.16 |
| GWLRAMKSIVNLF | inactive |
| FKRHMTINLQRGITLIGIDM | 1.93 ± 0.062 |
| FSITSADGCCSHLLRMYTNG | inactive |
| CFPCLWP | 1.26 ± 0.12 |

| Substance | amyloid nucleation score |
| --- | --- |
| LNLETLISWLSVCPRGRTEE | inactive |
| FQLSPTDRVYRDRSAYDVEG | inactive |
| MMGSVQLVHSIEYSCMHGTS | inactive |
| RQRMSGQNVTNNHACLFKAR | inactive |
| LRVRFTISWL | -0.471 ± 0.41 |
| SSLHARRYGLHLSLLSPARA | inactive |
| ASGSFKPFFSVEWYLS | inactive |
| IGKKVCMCRDKGGLIGLRGG | inactive |
| PYMITILHFISHATVLNTSV | inactive |
| WYRYFGCEDP | inactive |
| RENTNSFGVNCGTQFGRISL | 1.56 ± 0.099 |
| CLGGHLTHLHL | inactive |
| HEWATWRDVLQVTTFFVLHM | inactive |
| PDEAVGV | -1.19 ± 2.5 |
| AGSDHVLRDRHYVVMPQEFL | inactive |
| TVWKGIREYSRS | inactive |
| WFTQERHSVPLLIWMGLRRQ | 2.03 ± 0.075 |
| NTVEPLYCCCSNRCISVSYV | inactive |
| VSIDSSFLHRSLLS | inactive |
| CVQLKSTSHVYYFRDQVGLD | 1.41 ± 0.087 |
| KVIRESVKSLRHFKFAWLLS | inactive |
| YVKPIGYTIFLWTGLGSP | inactive |
| IECRARRSVCLL | inactive |

| Substance | amyloid nucleation score |
| --- | --- |
| DTVKKVYSYYMTLNYVEPLP | inactive |
| RICRYGAIDLMGVP | inactive |
| GSILWGVNMRFLNITAGCDY | inactive |
| NNLRNIPE | inactive |
| LFIWCTFFVIMFCSTTRVSI | 1.17 ± 0.16 |
| NNERITWERDIRSRCFPVLV | inactive |
| QHYDDSNRFYNK | inactive |
| FNAPVNVLFR | -0.176 ± 0.6 |
| DFDNLFYTTLNSQFPRTRFV | inactive |
| HLMTQMATRRL | inactive |
| ILKYCQTSLRGERPILLLDF | inactive |
| NTFWLGVRIDGVFGWATNLP | inactive |
| FHGKNVF | inactive |
| LYICTIVYYGQSNRYMFAGQ | inactive |
| GLLCFK | inactive |
| DGCVEELWRGRVLMKMFTHS | inactive |
| LGSFNDVWIVCADWFAFLKV | inactive |
| LNACSGFTFLFNRVVIKVIL | -0.42 ± 0.8 |
| SLLGSEGVSLIFLHYYWWSA | inactive |
| GFIHWRGAIWVSL | -0.65 ± 1.9 |
| RSFSECWCWISKLVGYLGVT | inactive |
| PCRMKLVFFRDE | inactive |
| QWTQFIELLCYCYG | 1.87 ± 0.11 |

| Substance | amyloid nucleation score |
| --- | --- |
| FLMSHVII | inactive |
| GSYWKHVWLRYTSHGLTPQW | inactive |
| RYVIIMS | inactive |
| ERRVLISERAQWISLLYGIL | inactive |
| EYYGRVLSLTVTNIHFFRVF | inactive |
| VTAELNFITVNGYVE | inactive |
| TTIYSEVLFRDHCVWQYPDR | inactive |
| INSRKSHGLSEPSHYQT | inactive |
| VALWWTVMYRFFMALTFIMQ | inactive |
| TGRYVNWRASLSFAYNRMMI | inactive |
| LEERLNFGKYAVGDGYTLV | inactive |
| NTLWYIWGG | inactive |
| YPCYLLMGAVLSKPYLTSYV | inactive |
| SLGMMVWVH | inactive |
| AYLFLLWSW | inactive |
| IYLLYNPCFRMRYLFCMLRG | inactive |
| WLYARISADHDCLLKPELRM | inactive |
| LGGLYLLIFLRSGPRRWSGT | inactive |
| WIGSRGHQCPYRSSVTMMGT | inactive |
| SSLRLRDMSASENNRGSMPV | inactive |
| EDGLGSYFNKKVNATCLNLA | inactive |
